Measurements as given in patent US20250002610A1 (Genmab, published 2025).

How the values were obtained:
[1] = target: T1, human DR4 (Death Receptor 4), cell surface expressed on human tumor cell lines (human, UniProt O00220 24-468); assay: flow cytometry, PANC-1 cells, n = 1
T1 construct: also called TNFRSF10A; TRAIL-R1
T1 sequence: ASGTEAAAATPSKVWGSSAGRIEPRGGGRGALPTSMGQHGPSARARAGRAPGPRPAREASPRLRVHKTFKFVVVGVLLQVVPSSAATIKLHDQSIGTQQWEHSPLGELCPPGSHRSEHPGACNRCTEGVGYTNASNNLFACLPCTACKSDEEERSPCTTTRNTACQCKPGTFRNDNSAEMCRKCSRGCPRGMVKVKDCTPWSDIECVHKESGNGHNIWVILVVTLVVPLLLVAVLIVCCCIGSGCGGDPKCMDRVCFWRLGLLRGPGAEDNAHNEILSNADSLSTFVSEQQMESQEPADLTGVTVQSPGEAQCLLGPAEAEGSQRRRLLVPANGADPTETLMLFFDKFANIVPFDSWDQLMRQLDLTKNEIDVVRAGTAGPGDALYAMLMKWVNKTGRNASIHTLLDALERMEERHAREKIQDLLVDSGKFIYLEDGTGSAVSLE

[2] = target: T1, human DR4 (Death Receptor 4), cell …; assay: flow cytometry, HCT-116 cells, n = 1
[3] = target: T2, human FAPα (Fibroblast activation protein alpha), cell surface expressed (human, UniProt Q12884 1-760); assay: flow cytometry, human lung fibroblasts, n = 1
T2 construct: Endogenous on human lung fibroblasts and CAFs
T2 sequence: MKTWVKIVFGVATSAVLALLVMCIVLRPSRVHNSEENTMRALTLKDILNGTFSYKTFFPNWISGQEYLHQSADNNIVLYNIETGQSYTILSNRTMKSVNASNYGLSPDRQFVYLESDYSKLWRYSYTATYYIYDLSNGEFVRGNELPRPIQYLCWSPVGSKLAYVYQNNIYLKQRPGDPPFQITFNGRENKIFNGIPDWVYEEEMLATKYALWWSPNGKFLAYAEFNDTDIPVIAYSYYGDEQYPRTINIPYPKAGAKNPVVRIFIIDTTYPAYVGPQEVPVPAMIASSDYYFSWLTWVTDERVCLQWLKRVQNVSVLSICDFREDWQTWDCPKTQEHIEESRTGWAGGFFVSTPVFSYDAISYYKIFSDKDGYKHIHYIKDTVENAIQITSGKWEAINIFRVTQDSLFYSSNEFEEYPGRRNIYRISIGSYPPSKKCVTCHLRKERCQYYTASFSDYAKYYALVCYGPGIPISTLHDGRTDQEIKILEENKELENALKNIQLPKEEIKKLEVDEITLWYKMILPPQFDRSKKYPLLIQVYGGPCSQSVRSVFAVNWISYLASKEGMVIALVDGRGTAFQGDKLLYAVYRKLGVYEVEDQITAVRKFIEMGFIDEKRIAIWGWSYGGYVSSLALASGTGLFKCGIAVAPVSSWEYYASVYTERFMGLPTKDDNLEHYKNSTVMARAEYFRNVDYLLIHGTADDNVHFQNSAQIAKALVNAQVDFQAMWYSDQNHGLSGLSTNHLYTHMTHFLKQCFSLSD
Experimental: Binding of bispecific or monoclonal antibodies carrying the anti-FAPα arm derived from IgG1-FAPα-FERL (BisG1-FAPα-FERL/DR4-FERR, BisG1-FAPα-FERL/b12-FERR, and IgG1-FAPα-FERL) to cell surface expressed human FAPα was analyzed by flow cytometry using human lung fibroblasts and CAFs, which endogenously express FAPα. BisG1-b12-FERL/b12-FERR was used as negative control.
Human lung fibroblasts and CAFs (50,000 cells/well) were seeded in 96-Well round bottom plates (Greiner Bio-one, Cat #650101). Antibody dilutions were prepared using fluorescence-activated cell sorting (FACS) buffer, consisting of phosphate buffer saline (PBS, Lonza, Cat #BE17-517Q)+1% Bovine Serum Albumin (BSA, Roche, Cat #10735086001)+0.02% Sodium Azide (Bio-World, Cat #41920044-3). Plates were centrifuged, supernatant was removed, cells were resuspended in 50 μL of human Fc Block (BD, Cat #564220, diluted 1:100 in FACS buffer) and 50 μL of viability stain TO-PRO-3 Iodide (Thermo Fisher, Cat #T3605, diluted 1: 25,000 in FACS buffer), and incubated for 15 min at 4° C. Plates were washed three times with FACS buffer. Plates were centrifuged, supernatant was removed, cells were resuspended in 50 μL of antibody dilutions (concentration range 90-0.0005 μg/mL, three-fold dilution steps using FACS buffer) of BisG1-FAPα-FERL/DR4-FERR, BisG1-FAPα-FERL/b12-FERR, BisG1-b12-FERL/b12-FERR (top six concentrations only for CAFs culture) or IgG1-FAPα-FERL (top four concentrations only for CAFs culture) and incubated for 30 min at 4° C. Cells were washed three times with FACS buffer and resuspended in 50 μL of Fluorescein isothiocyanate (FITC)-labeled polyclonal antibody goat anti-mouse IgG1 (Jackson Immuno Research, Cat #109-096-097, diluted 1:100 in FACS buffer). […] Antibody binding to viable cells (TO-PRO-3 negative) was analyzed by flow cytometry on a FACSCelesta™ (BD biosciences) and data were processed using FlowJo_v10.8.1 (FlowJo LLC). Geomean fluorescence intensity, gMFI, was determined and visualized using GraphPad Prism.

EC50 [3]: 0.046 µg/mL
B1: BisG1-FAPα-FERL/DR4-FERR (bispecific antibody, human IgG1, kappa, lambda)
heavy 1: EVQLLESGGGLVQPGGSPRLSCEASGFTFSSYALSWVRQAPGKGLEWVSAISGSGGGRYYADSVKGRFTISRDNSKNTLFLQMNSLRAEDTAVYYCAKEGYSSSGTYWDHWGQGTLVTVSSASTKGPSVFPLAPSSKSTSGGTAALGCLVKDYFPEPVTVSWNSGALTSGVHTFPAVLQSSGLYSLSSVVTVPSSSLGTQTYICNVNHKPSNTKVDKRVEPKSCDKTHTCPPCPAPEFERGPSVFLFPPKPKDTLMISRTPEVTCVVVDVSHEDPEVKFNWYVDGVEVHNAKTKPREEQYNSTYRVVSVLTVLHQDWLNGKEYKCKVSNKALPAPIEKTISKAKGQPREPQVYTLPPSREEMTKNQVSLTCLVKGFYPSDIAVEWESNGQPENNYKTTPPVLDSDGSFLLYSKLTVDKSRWQQGNVFSCSVMHEALHNHYTQKSLSLSPG
light 1: AIQMTQSPSSVSASVGDRVTITCRASQGVSSWLAWYQQKPGRAPKLLIYVASTLQSGVPSRFSGSGSGTDFTLTINSLQPEDFATYYCQQANSFPPTFGQGTRLEMKRTVAAPSVFIFPPSDEQLKSGTASVVCLLNNFYPREAKVQWKVDNALQSGNSQESVTEQDSKDSTYSLSSTLTLSKADYEKHKVYACEVTHQGLSSPVTKSFNRGEC
heavy 2: QVQLQESGPGLVKPSGTLSLTCAVSGGSISSYSWWSWIRQPPGKGLEWIGELYHSGSTNYNPSLKSRVTISVDKSKNQFSLKLRSVTAADTAVYYCVRGVATIDYWGQGTLVTVSSASTKGPSVFPLAPSSKSTSGGTAALGCLVKDYFPEPVTVSWNSGALTSGVHTFPAVLQSSGLYSLSSVVTVPSSSLGTQTYICNVNHKPSNTKVDKRVEPKSCDKTHTCPPCPAPEFERGPSVFLFPPKPKDTLMISRTPEVTCVVVDVSHEDPEVKFNWYVDGVEVHNAKTKPREEQYNSTYRVVSVLTVLHQDWLNGKEYKCKVSNKALPAPIEKTISKAKGQPREPQVYTLPPSREEMTKNQVSLTCLVKGFYPSDIAVEWESNGQPENNYKTTPPVLDSDGSFFLYSRLTVDKSRWQQGNVFSCSVMHEALHNHYTQKSLSLSPG
light 2: QSALTQPPSASGSPGQSVTISCTGTSSDVGGYNFVSWYQQDPGKAPKLLIYEVTKRPSGVPDRFSGSKSGNTASLTVSGLQAEDEADYYCSSYAGSNNVMFGGGTKLTVLGQPKAAPSVTLFPPSSEELQANKATLVCLISDFYPGAVTVAWKADSSPVKAGVETTTPSKQSNNKYAASSYLSLTPEQWKSHRSYSCQVTHEGSTVEKTVAPTECS
notes: Human IgG1 bispecific made by controlled Fab-arm exchange of IgG1-FAPα-FERL and IgG1-DR4-FERR; monovalent for FAPα and for DR4; also called GEN1057
EC50 [1]: 1.8 µg/mL
EC50 [2]: 0.48 µg/mL
